Source: the supplement of paper PMC9170038

Tested on: MS2 coat protein
Assay: apparent KD of MS2 coat protein; designed switch direction (-1 OFF switch, 1 ON switch): -1; higher = weaker reporter binding
Outline: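 Apparent KD, taken as the median over clusters for each design, was obtained by curve-fitting normalised cluster fluorescence. Designed RNA switches had been transcribed on Illumina chips by stalled E. coli RNA polymerase and titrated with SNAP-549-labelled MS2 coat protein, doubling from 0.7 or 1.5 nM to 3 µM.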

[1] = Eterna round: R95, input ligand: FMN 200 uM
[2] = Eterna round: R95, input ligand: microRNA oligo, concentration not stated
[3] = Eterna round: R95, input ligand: none
[4] = input ligand: microRNA oligo, concentration not stated

Row | Sequence | apparent KD of MS2 coat protein [1] | apparent KD of MS2 coat protein [2] | apparent KD of MS2 coat protein [3] | apparent KD of MS2 coat protein (input ligand: FMN 200 uM) | apparent KD of MS2 coat protein [4] | apparent KD of MS2 coat protein (input ligand: none)
1 | AGUAGAUCUACGCUUGCGUGGAUCUGCUAGGCAGGUGUAACAUGAGGAUCACCCAUGUCCUCAUUUGUUCGUCUUAU [JL turnoff v2 99.18] (puzzle: Sensor v3, turn-off variant 2) | 85.4 nM | 313 nM | 28.3 nM |  |  | 
2 | AGUAGGUCUACCUUGGUGGAUCUGCAUUUAGGCAGGUGUACAUGAGGAUCACCCAUGUCCUCAUUUGCUCGUCUUAU [JL turnoff v2 99.29] (puzzle: Sensor v3, turn-off variant 2) | 807 nM | 488 nM | 952 nM |  |  | 
3 | AGUAGUUACGUAGGAUAUGAGGAUCACCCAUAGAAGGAUAUCGAAAGAGAAGGUCUGAGGAUUACCCAGAAGGACGUGACUACA [pwkr exNG2 2xF5 2xFMN.9] (Eterna round: R96, puzzle: Exclusion NG 2) |  |  |  | 334 nM | 113 nM | 138 nM
4 | AGUAUAAUGUACGUGCACCACUUACAUGAGGAUCACCCAUGUUAGGAUAUCGAGCCUUUCUGGCUCGAGAAGGGACUCUUCGGG [Eternabot solution 18] (Eterna round: R96, puzzle: Exclusion NG 3) |  |  |  | 33.2 nM | 22.9 nM | 29.1 nM
5 | AGUAUCUGAGGAUAUUGAGUUAUCUACAUGAGGAUCACCCAUGUUGUAUGUGUAGAAGCACGAGAAGGCAGAUACA [Eternabot (L2) Solution 1] (Eterna round: R97, puzzle: Exclusion 5) |  |  |  | 395 nM |  | 102 nM
6 | AGUCAGGCGGUAGGAUAUCCAAACCGAGUGACCCUUUCAUAACAUGAGGAUCACCCAUGUCGGUGGGAGAAGGGCCGUACGGCA [Mat - Exclusion NG 2 - Mod of JL - D65] (Eterna round: R96, puzzle: Exclusion NG 2) |  |  |  | 410 nM | 173 nM | 159 nM
7 | AGUCAGGCGGUAGGAUAUCCAUAUCGAGUGACCCUUUCAUAACAUGAGGAUCACCCAUGUCGGUGGGAGAAGGGCCGUAAGGCA [Mat - Exclusion NG 2 - Mod of JL - D69] (Eterna round: R96, puzzle: Exclusion NG 2) |  |  |  | 53.6 nM | 30.5 nM | 41.1 nM
8 | AGUCCAUAUGUUAGGAUAUGCAACUAGCCAUUGUAGCAGAAGGAACAUGAGGAUCACCCAUGUACAAAGACCCG [Biinvees] (puzzle: Brourd's mod of Exclusion 4) | 33.6 nM | 23.6 nM | 18.2 nM |  |  | 
9 | AGUCCUGAAGUUAGGAUAUGAAGUAUCACUGCACUUCAGAAGGGACUUGAGGAUCACCCAAGUAGCCGUGAGGG [salish99_bmod_ex4_r4_002] (Eterna round: R97, puzzle: Brourd's mod of Exclusion 4) |  |  |  | 128 nM |  | 70.6 nM
10 | AGUCGGUCAGGAUAUGCAAUCGUGGACAUGAGGAUCACCCAUGUAACGUGGGCCUGGUUUGUAGAAGGGACGUGCA [EX5 #88] (Eterna round: R97, puzzle: Exclusion 5) |  |  |  | 63.2 nM |  | 55.2 nM
11 | AGUCUGCGAGGAUAUACAUGAGGAUCACCCAUGUGCGAGAUACUAGUGAGGUCGAUUGGUAGAAGGCGCGGACG [Mat - Exclusion 3 - Mod of JL D85] (puzzle: Exclusion 3) | 86.4 nM | 93.1 nM | 67 nM |  |  | 
12 | AGUGUGGGAGGAUAUACAUGAGGAUCACCCAUGUGAGUUGGCUCACAUGCUACGCUUCGUAGAAGGCCCAAAGA [Reragebion] (Eterna round: R96, puzzle: Exclusion 3) |  |  |  | 554 nM | 86.2 nM | 91.3 nM
13 | AGUUGGCGAGGAUAUACAUGAGGAUCACCCAUGUGAAAUAGAAUAGUGAGGAAGAAAAGUAGAAGGCGCUGACA [Mat - Exclusion 3 - Mod of Salish D41] (puzzle: Exclusion 3) |  | 49.7 nM |  |  |  | 
14 | AGUUGGCGAGGAUAUACAUGAGGAUCACCCAUGUGAAGAAGAAUAGUGAGGAAGAAAAGUAGAAGGCGCUGACA [Mat - Exclusion 3 - Mod of Salish D37] (Eterna round: R96, puzzle: Exclusion 3) |  |  |  | 412 nM | 33.6 nM | 48.5 nM
15 | AGUUGGCGAGGAUAUACAUGAGGAUCACCCAUGUGAAGAAGAAUAGUGAGGAAGAAAAGUAGAAGGCGCUGACA [Mat - Exclusion 3 - Mod of Salish D37] (puzzle: Exclusion 3) |  | 36.6 nM |  |  |  | 
16 | AGUUGGCGAGGAUAUACAUGAGGAUCACCCAUGUGAGAGAAAAAAGUGAGGAAGAAAAGUAGAAGGCGCUGACU [salish99_ex3_r3_039] (puzzle: Exclusion 3) | 313 nM | 46.3 nM | 60.4 nM |  |  | 
17 | AUAAAACGAGGAUAUGCUGGGCUUCUGUGAUGCAUAUGCUCACAUGAGGAUCACCCAUGUAGAAGGUGUAAAAU [Laaceve] (Eterna round: R96, puzzle: Exclusion 2) |  |  |  | 389 nM | 221 nM | 331 nM
18 | AUAAAACGAGGAUAUGCUGGGCUUCUGUGAUGCAUAUGCUCACAUGAGGAUCACCCAUGUAGAAGGUGUAAAAU [Laaceve] (puzzle: Exclusion 2) |  | 220 nM |  |  |  | 
19 | AUAAAAUGCCAAGGAUAUCGGAAAGGAAGUGUACGAGAAGGUGGAGAUCCUAUACAUGAGGAUCACCCAUGUAUCAAGCUUGGG [PowerStrip EXNG 1.10] (Eterna round: R96, puzzle: Exclusion NG 1) |  |  |  | 692 nM | 510 nM | 760 nM
20 | AUAAAUCAUGUAGGAUAUGCGUGGCGAAGCUAUGCAGAAGGACAUGAGGAUCACCCAUGUCUUUCCGUCUGCGUACAGACGGAA [Mat - Exclusion NG 1 - Mod of JL - D41] (Eterna round: R96, puzzle: Exclusion NG 1) |  |  |  | 289 nM | 23.6 nM | 24.5 nM
21 | AUAAUAAAGGAGGAUAUCGUAACGGAAACGUUACGAGAAGGUCUAACAUGAGGAUCACCCAUGUUCCUCAAAUA [Mat - Exclusion 6 - Eli Mod - D50] (puzzle: Exclusion 6) | 47.8 nM | 35.4 nM | 47 nM |  |  | 
22 | AUAAUGUAAGGAUAUCAGUCGACUAGCCUCGGCUAGUCGACUGAGAAGGUACAUGAGGAUCACCCAUGUGUUUC [E4/12-A3] (Eterna round: R97, puzzle: Exclusion 4) |  |  |  | 244 nM |  | 35.6 nM
23 | AUAAUGUGAGGAUAUCGAGACUACUGCCUCGGCAGUAGUCUCGAGAAGGCACAUGAGGAUCACCCAUGUGAUCA [E4/2-A2] (Eterna round: R97, puzzle: Exclusion 4) |  |  |  | 79 nM |  | 1190 nM
24 | AUACCACGAGGAUAUCGUCUAUUCCACAUGAGGAUCACCCAUGUUAUCCAUGUUUCGUUUCGAGAAGGCGUGGGUU [JR_E5_Sub074] (Eterna round: R96, puzzle: Exclusion 5) |  |  |  | 50.8 nM | 38.2 nM | 51.6 nM
25 | AUACCACGAGGAUAUCGUCUAUUCCACAUGAGGAUCACCCAUGUUAUCCAUGUUUCGUUUCGAGAAGGCGUGGGUU [JR_E5_Sub074] (puzzle: Exclusion 5) |  | 45.9 nM |  |  |  | 
26 | AUACCAUGCCGCCUAAUAGCUUUUUGCCCGUCUUAUAAAACAUGAGGAUCACCCAUGUAAAACUCGUGGCGUGACCC [Quarre] (puzzle: Sensor v3, turn-off variant 2) | 156 nM | 21.9 nM | 195 nM |  |  | 
27 | AUAGGCCGAGGAUAUGUAGCUAUGAACAUGAGGAUCACCCAUGUGAGUGUCGUGCGUAUUAUAGAAGGCGGUGCAU [EX5 B.14] (Eterna round: R97, puzzle: Exclusion 5) |  |  |  | 17 nM |  | 16.1 nM
28 | AUAUAAACAUAGGAUAUCGAAUUUAUCAUUUAACGAGAAGGAUGAACAUGAGGAUCACCCAUGUGGUAUCAUGG [Mat - Exclusion 6 - JL Mod - D5] (puzzle: Exclusion 6) | 553 nM | 333 nM | 340 nM |  |  | 
29 | AUAUAGUGAGGAUAUACAUGAGGAUCACCCAUGUGGUAGUAGAUACAGUAGAGAUAGAGUAGAAGGCACGAUGA [EX3 #26] (Eterna round: R97, puzzle: Exclusion 3) |  |  |  | 197 nM |  | 68 nM
30 | AUAUAGUGAGGAUAUCCAAUAUAUGACAUGAGGAUCACCCAUGUUUCCACUCGUACCUCCGGAGAAGGCACAUUUU [Ex5 #65] (Eterna round: R97, puzzle: Exclusion 5) |  |  |  | 27.2 nM |  | 27.6 nM
